Assay results: patent US20220411525A1, “BCMA AS A TARGET FOR T CELL REDIRECTING ANTIBODIES IN B CELL LYMPHOMAS” (Janssen Pharmaceutica NV, priority 2021, published 2022)

Target: B cell maturation antigen (BCMA) (human) (UniProt Q02223)
Assay: cell-based or functional assay

Sequence of B cell maturation antigen (BCMA) (human) (Q02223 whole entry): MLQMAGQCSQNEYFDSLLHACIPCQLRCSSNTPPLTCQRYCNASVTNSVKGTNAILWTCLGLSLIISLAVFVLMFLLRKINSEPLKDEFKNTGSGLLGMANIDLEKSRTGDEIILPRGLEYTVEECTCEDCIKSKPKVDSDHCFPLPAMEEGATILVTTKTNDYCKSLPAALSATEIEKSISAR

average lysis of primary CLL cells, HD PBMCs 10:1 E:T, 48 h, 100 ng/mL, no γ-secretase inhibitor (first T cell donor): 12.9%
average lysis of primary CLL cells, HD PBMCs 10:1 E:T, 48 h, 100 ng/mL, no γ-secretase inhibitor (second T cell donor): 16.4%
average lysis of primary CLL cells, HD PBMCs 10:1 E:T, 48 h, 100 ng/mL, with 100 nM γ-secretase inhibitor (first T cell donor): 14.9%
average lysis of primary CLL cells, HD PBMCs 10:1 E:T, 48 h, 100 ng/mL, with 100 nM γ-secretase inhibitor (second T cell donor): 21.6%
lysis of primary CLL cells by HD CD8+ T cells, 5:1 E:T, 96 h, 100 ng/mL: < 60%
mean lysis of primary CLL cells by autologous CLL derived T cells, 5:1 E:T, 96 h, 100 ng/mL: 40%
Substance: BCMAxCD3 DuoBody Teclistamab (JNJ-64007957) (bispecific antibody)
average cell death of primary CLL cells, HD PBMCs 10:1 E:T, 96 h, 100 ng/mL, no γ-secretase inhibitor (first T cell donor): 15.8%
average cell death of primary CLL cells, HD PBMCs 10:1 E:T, 96 h, 100 ng/mL, no γ-secretase inhibitor (second T cell donor): 20%
average cell death of primary CLL cells, HD PBMCs 10:1 E:T, 96 h, 100 ng/mL, with 100 nM γ-secretase inhibitor (first T cell donor): 25.8%
average cell death of primary CLL cells, HD PBMCs 10:1 E:T, 96 h, 100 ng/mL, with 100 nM γ-secretase inhibitor (second T cell donor): 27.4%
